Patent US20200270588A1, “GLUCOSYL TRANSFERASE POLYPEPTIDES AND METHODS OF USE” (Syngenta Participations AG, priority 2017, published 2020)
Positions count from the first letter of the chain named. In names and notes the source's numbering stands.

B1: A432Q: bx9 SEQ ID NO:1 mutant (protein)
chain: MASSRTGAGAGGRVVVFPFPFQGHFNPVMRLARALHARGLAITVFHSGALDPADYPADYRFVPVTVEADPKLLASEDIAAIVTTLNASCDAPFRARLSALLAAEGRDSVRCVFTDVSWNAVLTASSDLGVPALGMMTASAASLRDYMAYRTLIDKGYLPVKEERKEDPVPELPPYLVKDLLRVDTSDLEEFAELLARTVTAARRASGLIFNTFPLIETDTLAEIHKALSVPVFAVAPLNKLVPTATASLHGVVQADRGCLQWLDTQQPGSVLYVSFGSMAAMDPHEFVELAWGLADSKRPFVWVVRPNLIRGFESGALPDGVEDEVRGRGIVVAWAPQEEVLAHPAVGGFLTHNGWNSTVEAISEGVPMVCCPRHGDQFGNMRYVCDVWKVGTELVGEQLERGQVKAAIDRLFGTKEGEEIKERMKEFKIAQAKGIGIGVDVDETASPRTDLTDLVDLIKSF
modifications: Zea mays
B2: A432T: bx9 SEQ ID NO:1 mutant (protein)
chain: B1 chain with Q432T
modifications: Zea mays
B3: E339A (protein)
chain: B1 chain with M279F, E339A, H375Y, Q432A
modifications: C-terminal His tag; Zea mays
B4: E339V: additional mutation in SEQ ID No: 17 (protein)
chain: B1 chain with S117V, M279F, A334K, E339V, Q432A
modifications: Mutated Zea mays Bx9 protein sequence
B5: A432H: bx9 SEQ ID NO:1 mutant (protein)
chain: B1 chain with Q432H
modifications: Zea mays
B6: A432N: bx9 SEQ ID NO:1 mutant (protein)
chain: B1 chain with Q432N
modifications: Zea mays
B7: A432V: bx9 SEQ ID NO:1 mutant (protein)
chain: B1 chain with Q432V
modifications: Zea mays
B8: A281L: bx9 SEQ ID NO:1 mutant (protein)
chain: B1 chain with A281L, Q432A
modifications: Zea mays
B9: I363V: bx9 SEQ ID NO:1 mutant (protein)
chain: B1 chain with I363V, Q432A
modifications: Zea mays
B10: I363S: bx9 SEQ ID NO:1 mutant (protein)
chain: B1 chain with I363S, Q432A
modifications: Zea mays
B11: A281T: bx9 SEQ ID NO:1 mutant (protein)
chain: B1 chain with A281T, Q432A
modifications: Zea mays
B12: A280V: bx9 SEQ ID NO:1 mutant (protein)
chain: B1 chain with A280V, Q432A
modifications: Zea mays
B13: I363A: bx9 SEQ ID NO:1 mutant (protein)
chain: B1 chain with I363A, Q432A
modifications: Zea mays
B14: I363C: bx9 SEQ ID NO:1 mutant (protein)
chain: B1 chain with I363C, Q432A
modifications: Zea mays
B15: I363W: bx9 SEQ ID NO:1 mutant (protein)
chain: B1 chain with I363W, Q432A
modifications: Zea mays
B16: I363F: bx9 SEQ ID NO:1 mutant (protein)
chain: B1 chain with I363F, Q432A
modifications: Zea mays
B17: A281S: bx9 SEQ ID NO:1 mutant (protein)
chain: B1 chain with A281S, Q432A
modifications: Zea mays
B18: A334K: bx9 SEQ ID NO:1 mutant (protein)
chain: B1 chain with A334K, Q432A
modifications: Zea mays
B19: A281V: bx9 SEQ ID NO:1 mutant (protein)
chain: B1 chain with A281V, Q432A
modifications: Zea mays
B20: I363T: bx9 SEQ ID NO:1 mutant (protein)
chain: B1 chain with I363T, Q432A
modifications: Zea mays

assay: UDP luminescence plate assay of E. coli extracts, mutants of SEQ ID No: 1, 2 mM metribuzin; type: biochemical, Zea mays; conditions: 2 mM metribuzin
Summary of the method: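 Extracts of E. coli BL21 DE3 expressing C-terminally His-tagged SEQ ID NO:1 variants incubated with 2 mM metribuzin; UDP formed read by UDP-Glo luminescence against a UDP standard curve, with optional 95 C stop. Mutants ranked by metribuzin/DMSO signal ratio and signal increase over wild-type bx9.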

Row | Molecule | factor of increased signal relative to the bx9 w/t control signal (first parentheses) | ratio of activity with metribuzin relative to activity with DMSO (second parentheses)
1 | B1 | 6 | 1.35
2 | B2 | 3.5 | 1.35

assay: UDP luminescence plate assay of E. coli extracts, mutants within SEQ ID No: 17, 2 mM metribuzin; type: biochemical, Zea mays; conditions: 2 mM metribuzin vs DMSO control, same mutant

Row | Molecule | RATIO of the metribuzin signal to the DMSO signal
3 | B1 | 1.20
4 | B3 | 1.53
5 | B2 | 1.17

same assay, conditions: 2 mM metribuzin; additional mutation in SEQ ID No: 17

Row | Molecule | metribuzin signal relative to the SEQ ID No:17 control (first parentheses) | ratio of metribuzin to DMSO signal (second parentheses)
6 | B4 | 2.6 | 1.51

same assay, conditions: 2 mM metribuzin; relative to SEQ ID No: 17 control

Row | Molecule | SIGNAL: metribuzin signal of mutant divided by the signal of the SEQ ID No. 17 control
7 | B1 | 4.09
8 | B4 | 2.64
9 | B5 | 3.44
10 | B3 | 2.01
11 | B6 | 4.21
12 | B7 | 3.88
13 | B2 | 3.57

same assay, conditions: additional mutations within SEQ ID No: 17; DMSO in place of metribuzin

Row | Molecule | luminescence signal in the DMSO control
14 | B1 | 6.22E+06
15 | B4 | 3.18E+06
16 | B5 | 6.08E+06
17 | B3 | 2.39E+06
18 | B6 | 6.13E+06
19 | B7 | 5.69E+06
20 | B2 | 5.56E+06

same assay, conditions: additional mutations within SEQ ID No: 17; control = SEQ ID No: 17; 2 mM metribuzin

Row | Molecule | luminescence signal observed with 2 mM metribuzin
21 | B1 | 7.46E+06
22 | B4 | 4.81E+06
23 | B5 | 6.28E+06
24 | B3 | 3.66E+06
25 | B6 | 7.67E+06
26 | B7 | 7.07E+06
27 | B2 | 6.51E+06

assay: UDP luminescence plate assay of E. coli extracts, saturation mutants of SEQ ID NO: 1, herbicide V; type: biochemical, Zea mays; conditions: improvement factor relative to w/t bx9 = 1.0, rounded to nearest 0.5; extract activity basis; compound V
Experimental: Competent BL21 (DE3) cells are transformed as in the foregoing examples and, following seed culturing, grown and autoinduced in plates in a 0.5-1 ml volume of autoinduction medium containing 50 ug/ml kanamycin. Plates are incubated at 37° C. and shaken at 900 rpm. Growth is monitored by taking 20 ul aliquots, diluting 10 fold into flat-bottomed 96 well microtiter plates and reading OD600n at t=0, 1, 2, 2½ and 3 hours if necessary. At a (corrected) OD600 nm˜0.2, plates are transferred to 20° C. and shaken overnight at 900 rpm in a Jencons VWR plate incubator. After ˜18-20 h the final OD600 readings are recorded and the plates centrifuged at 4600 rpm (bench top centrifuge) for 10 min at 4° C. The supernatant is discarded and the pellets then washed with 0.25 ml PBS by repeat centrifugation and removal of supernatant before freezing cell pellets at −80° C. To prepare extracts, plates are allowed to thaw for 30 min and then pellets are resuspended in 0.25 ml of a suitable lysis buffer (for example—50 mM Tris HCL buffer at pH 8.0, 5% glycerol containing 50 mM NaCl and lysonase) mixed, incubated at room temperature for a sufficient time for lysis to be near complete and then centrifuged to remove cell debris and 100 ul of supernatant extract removed to a 96 well V-shaped well plate and stored on ice prior to assay.
Optionally plate assays are stopped with brief heating to 95 C before returning to ice and addition of UDP-Glo detection reagent followed by incubation at lab temperature. […] In addition a UDP standard curve is run alongside each set of plate tests.
Making use of the ELISA assay it is then possible to calculate a specific activity (e.g. in Relative Luminescence Units (RLU)/min/ug bx protein) based upon the amount of each mutant bx9 polypeptide expressed in each well. […] The specific activity of the various test mutant extracts on the same plate are then expressed as a fraction of the specific activity of the w/t bx9 and thus the ‘improvement factor’ versus the w/t expressed as a decimal where, for example, ‘0.5’ means half the specific activity of the wild type and 2.0 means twice the specific activity of the wild type. However, as will be readily apparent to the skilled man, particularly in cases where the UDP assay signal was low (with poor signal to noise versus the background) and/or the ELISA measurement of bx protein also low such a method is prone to generate spurious high specific activity numbers and uncertain numbers.

Row | Molecule | Preferred amino acid substitutions and (IF) based on RLU/min/ul | Most Preferred amino acid substitutions and (IF) based on RLU/min/ul
28 | B8 | L(1.5) | –
29 | B9 | – | A,V(2.0)
30 | B10 | S,T,F,W(1.5) | –
31 | B11 | S,T,V(1.0) | –
32 | B12 | V(1.0) | –
33 | B13 | – | A,V(2.0)
34 | B14 | C(1.0) | –
35 | B15 | S,T,F,W(1.5) | –
36 | B16 | S,T,F,W(1.5) | –
37 | B17 | S,T,V(1.0) | –
38 | B18 | – | K,R(2.0)
39 | B19 | S,T,V(1.0) | –
40 | B20 | S,T,F,W(1.5) | –
